From patent publication US10781452B2, “FLT3 receptor antagonists for the treatment or the prevention of pain disorders” (INSTITUT NATIONAL DE LA SANTE ET DE LA RECHERCHE MEDICALE …, priority 2010, dated 2020)

Target: T1, FLT3 (Mus musculus, UniProt Q00342)
T1 construct: from tissue; host or cells: living mice (sensory neurons / DRG)
T1 sequence (Q00342 28-1000): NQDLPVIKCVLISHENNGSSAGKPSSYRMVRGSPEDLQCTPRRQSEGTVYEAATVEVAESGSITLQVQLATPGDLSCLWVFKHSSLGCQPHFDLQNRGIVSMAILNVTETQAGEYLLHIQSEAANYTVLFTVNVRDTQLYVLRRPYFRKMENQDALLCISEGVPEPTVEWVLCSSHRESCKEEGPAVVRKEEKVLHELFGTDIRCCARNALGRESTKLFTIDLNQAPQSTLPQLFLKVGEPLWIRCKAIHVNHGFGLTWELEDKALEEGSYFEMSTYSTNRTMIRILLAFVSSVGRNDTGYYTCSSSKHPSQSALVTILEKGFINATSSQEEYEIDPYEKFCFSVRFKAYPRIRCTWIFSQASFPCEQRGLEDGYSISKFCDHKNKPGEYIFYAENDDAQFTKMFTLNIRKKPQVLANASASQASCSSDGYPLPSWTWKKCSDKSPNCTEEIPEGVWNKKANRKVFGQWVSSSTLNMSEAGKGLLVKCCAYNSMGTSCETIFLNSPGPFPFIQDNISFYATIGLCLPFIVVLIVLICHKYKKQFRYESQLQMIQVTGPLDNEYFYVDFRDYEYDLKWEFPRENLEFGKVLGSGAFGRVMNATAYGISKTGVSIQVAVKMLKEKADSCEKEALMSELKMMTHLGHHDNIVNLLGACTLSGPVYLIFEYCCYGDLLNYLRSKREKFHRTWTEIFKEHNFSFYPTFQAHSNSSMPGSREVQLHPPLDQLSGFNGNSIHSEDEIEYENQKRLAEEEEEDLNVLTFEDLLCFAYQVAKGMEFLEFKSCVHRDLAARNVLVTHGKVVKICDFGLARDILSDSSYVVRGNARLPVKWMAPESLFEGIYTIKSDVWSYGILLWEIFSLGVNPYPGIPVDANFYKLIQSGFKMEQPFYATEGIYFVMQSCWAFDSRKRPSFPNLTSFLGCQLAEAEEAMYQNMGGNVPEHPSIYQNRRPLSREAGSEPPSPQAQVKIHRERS
Assay: Chronic Constriction Injury (CCI) mouse model, mechanical hypersensitivity (0.6 g von Frey filament)
Type: in vivo
Protocol: The efficacy of the antibody A3 to reverse neuropathic pain was assessed in the Chronic Constriction Injury (CCI) mouse model of persistent peripheral neuropathic pain, consisting in three chronic ligatures tied loosely around the sciatic nerve (Bennett, G. J. & Xie, Y. K. A peripheral mononeuropathy in rat that produces disorders of pain sensation like those seen in man. Pain, 1988, 33:87-107). Neuropathic pain symptoms, such as mechanical hypersensitivity, develop within 10 days post-injury.
CCI model. The Chronic Constriction Injury (CCI) model was adapted for mice (Costa, B., Comelli, F., Bettoni, I., Colleoni, M. & Giagnoni, G. The endogenous fatty acid amide, palmitoylethanolamide, has anti-allodynic and anti-hyperalgesic effects in a murine model of neuropathic pain: involvement of CB(1), TRPV1 and PPARgamma receptors and neurotrophic factors. Pain, 2008, 139:541-550). Briefly, skin was incised and the sciatic nerve was exposed unilaterally at the […] by dissecting through the biceps femoris. […]
Mechanical nociception assay. […] The procedure was applied 10 times and the percentage of positive responses was calculated.
Data and statistical analyses. Data are expressed as the mean ±S.E.M. Statistical significance was determined by two-way analysis of variance (ANOVA) for repeated measures, over time. […]

B1: A3 antibody: human monoclonal antibody against FLT3; VH SEQ ID NO:1, VL SEQ ID NO:2 (antibody, V domains shown)
VH: EVQLVESGGSLVKPGGSLRLSCAASGFTFSNSYMNWVRQAPGKGLEWISDISGSSRDIDYADFVKGRFTISRDNATNSLYLQMNSLRAEDTAVYYCVRSGNSGMDVWGRGTLVTVSS
VL: QSVLTQPASVSGSPGQSITISCAGTSSDVGGGYYVSWYQQHPGKAPKLMIYYDSYRPSGVSNRFSGSKSGNTASLTISGLQAEDEADYYCSSYTNNSTRVFGGGTKLEIK
modifications: Synthetic VH domain of A3; Synthetic VL region of A3
Q: Which “mechanical sensitivity (percentage of withdrawal) after CCI injury” value (100 μg/animal intraperitoneal, 9 days after CCI, vs control irrelevant antibody) does the source give for B1 here?
A: completely reduce mechanical sensitivity to the scores obtained before CCI injury

Q: And the “duration of inhibition of CCI-induced pain hypersensitivity” value (single injection, 100 μg/animal)?
A: 48 h
